According to patent publication US20240116997A1 (BRIGHT PEAK THERAPEUTICS, published 2024):
Where two headings read alike, the source gives them in different places.

T1: IL-18 receptor (IL-18Rαβ) on cells (UniProt Q13478 19-541; O95256 20-599, limits assumed)
T1 sequence (looked up) 1: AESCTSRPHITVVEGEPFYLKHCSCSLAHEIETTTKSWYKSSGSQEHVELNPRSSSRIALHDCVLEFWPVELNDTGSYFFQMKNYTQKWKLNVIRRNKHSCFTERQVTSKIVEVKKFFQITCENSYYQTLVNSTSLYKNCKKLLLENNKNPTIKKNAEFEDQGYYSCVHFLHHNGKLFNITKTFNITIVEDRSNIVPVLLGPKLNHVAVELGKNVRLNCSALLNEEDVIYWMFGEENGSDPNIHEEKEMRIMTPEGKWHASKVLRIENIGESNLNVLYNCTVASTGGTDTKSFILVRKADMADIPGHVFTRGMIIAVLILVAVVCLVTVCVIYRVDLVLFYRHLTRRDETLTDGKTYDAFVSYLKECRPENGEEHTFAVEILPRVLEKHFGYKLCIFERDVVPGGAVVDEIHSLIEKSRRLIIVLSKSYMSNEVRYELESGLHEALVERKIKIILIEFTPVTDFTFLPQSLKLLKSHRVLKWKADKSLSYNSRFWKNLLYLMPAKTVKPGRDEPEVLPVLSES
T1 sequence (looked up) 2: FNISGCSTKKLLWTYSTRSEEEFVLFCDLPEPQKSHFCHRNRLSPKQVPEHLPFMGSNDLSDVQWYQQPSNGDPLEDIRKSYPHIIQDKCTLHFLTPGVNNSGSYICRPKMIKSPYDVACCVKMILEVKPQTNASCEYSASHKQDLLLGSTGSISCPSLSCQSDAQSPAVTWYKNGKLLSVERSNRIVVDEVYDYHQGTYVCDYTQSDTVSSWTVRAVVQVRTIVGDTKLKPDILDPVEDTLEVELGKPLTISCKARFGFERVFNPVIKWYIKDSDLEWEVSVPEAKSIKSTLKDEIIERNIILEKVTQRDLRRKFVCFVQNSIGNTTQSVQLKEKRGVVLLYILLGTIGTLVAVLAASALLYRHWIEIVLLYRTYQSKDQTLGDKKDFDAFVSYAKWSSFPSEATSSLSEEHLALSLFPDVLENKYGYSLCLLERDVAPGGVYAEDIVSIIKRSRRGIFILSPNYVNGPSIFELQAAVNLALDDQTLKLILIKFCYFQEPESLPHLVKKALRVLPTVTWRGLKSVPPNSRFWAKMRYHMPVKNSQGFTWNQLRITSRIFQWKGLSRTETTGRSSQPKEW


How the values were obtained:
Assay in all cases: cell-based or functional assay
[1] = molecular target: T1, IL-18 receptor (IL-18Rαβ) on cells
[2] = molecular target: T1, IL-18 receptor (IL-18Rαβ) on cells; remark: listed apart in the source
[3] = molecular target: T1, IL-18 receptor (IL-18Rαβ) on cells; remark: listed apart in the source
[4] = molecular target: T1, IL-18 receptor (IL-18Rαβ) on cells; remark: listed apart in the source
[5] = molecular target: T1, IL-18 receptor (IL-18Rαβ) on cells; remark: listed apart in the source

Row | Binder | Fold potency loss vs C086 [1] | HEK-blue EC50 [1] | EC50 (nM), IFNγ induction, NK-92 cells [2] | EC50 (read off the curve), HEK-Blue IL18R reporter [3] | EC50 (pM), HEK-Blue IL-18R reporter assay [4] | EC50 (read off the curve), HEK-Blue IL18R reporter [5]
1 | C185 (Propeptide-PLG-C086; SEQ ID NO: 70) (ligand) MAAEPVEDNCINFVAMKFIDNTLYFIAEDDENLESDPLGYFGKLKSKLSIIRNLNDQVLFIDQGNRPLFEDMTDSDARDNAPRTIFIISMYADSQPRGMAVAISVKCEKISTLSAENKIISFKEMNPPDNIKDTKSDIIFFQRSVPGHDNKMQFESSSYEGYFLAAEKERDLFKLILKKEDELGDRSIMFTVQNED | 60900 fold | 2560 nM | – | – | – | –
2 | C086 (SEQ ID NO: 30; E6K, V11I, C38A, K53A, T63A, C76A, C127A) (ligand) YFGKLKSKLSIIRNLNDQVLFIDQGNRPLFEDMTDSDARDNAPRTIFIISMYADSQPRGMAVAISVKCEKISTLSAENKIISFKEMNPPDNIKDTKSDIIFFQRSVPGHDNKMQFESSSYEGYFLAAEKERDLFKLILKKEDELGDRSIMFTVQNED | – | 0.04 nM | 0.026 nM | ~0.04 pM | 0.034 pM | ~0.04 pM
3 | C187 (Propeptide-PLGLAG-C086; SEQ ID NO: 72) (ligand) MAAEPVEDNCINFVAMKFIDNTLYFIAEDDENLESDPLGLAGYFGKLKSKLSIIRNLNDQVLFIDQGNRPLFEDMTDSDARDNAPRTIFIISMYADSQPRGMAVAISVKCEKISTLSAENKIISFKEMNPPDNIKDTKSDIIFFQRSVPGHDNKMQFESSSYEGYFLAAEKERDLFKLILKKEDELGDRSIMFTVQNED | 29400 fold | 1240 nM | – | – | – | –
4 | C168 (V11I, C38A, C76A, S105K, C127A) (ligand) YFGKLESKLSIIRNLNDQVLFIDQGNRPLFEDMTDSDARDNAPRTIFIISMYKDSQPRGMAVTISVKCEKISTLSAENKIISFKEMNPPDNIKDTKSDIIFFQRKVPGHDNKMQFESSSYEGYFLAAEKERDLFKLILKKEDELGDRSIMFTVQNED | – | – | 1.37 nM | – | 7.73 pM | –
5 | C136 (C086-GGSGG-IL-18Rα D3-His6, non-cleavable control; SEQ ID NO: 77) (ligand) YFGKLKSKLSIIRNLNDQVLFIDQGNRPLFEDMTDSDARDNAPRTIFIISMYADSQPRGMAVAISVKCEKISTLSAENKIISFKEMNPPDNIKDTKSDIIFFQRSVPGHDNKMQFESSSYEGYFLAAEKERDLFKLILKKEDELGDRSIMFTVQNEGGSGGSNIVPVLLGPKLNHVAVELGKNVRLNCSALLNEEDVIYWMFGEENGSDPNIHEEKEMRIMTPEGKWHASKVLRIENIGESNLNVLYNCTVASTGGTDTKSFILVRKADHHHHHH | 21 fold | 0.884 nM | – | – | – | –
6 | C137 (C086-GGGGSGGGGSGGGG-IL-18Rα D3-His6, non-cleavable control; SEQ ID NO: 78) (ligand) YFGKLKSKLSIIRNLNDQVLFIDQGNRPLFEDMTDSDARDNAPRTIFIISMYADSQPRGMAVAISVKCEKISTLSAENKIISFKEMNPPDNIKDTKSDIIFFQRSVPGHDNKMQFESSSYEGYFLAAEKERDLFKLILKKEDELGDRSIMFTVQNEGGGGSGGGGSGGGGSNIVPVLLGPKLNHVAVELGKNVRLNCSALLNEEDVIYWMFGEENGSDPNIHEEKEMRIMTPEGKWHASKVLRIENIGESNLNVLYNCTVASTGGTDTKSFILVRKADHHHHHH | 49 fold | 2.08 nM | – | – | – | –
7 | C172 (C086-LinkerX-IL-18Rα D3-His6; SEQ ID NO: 73) (ligand) YFGKLKSKLSIIRNLNDQVLFIDQGNRPLFEDMTDSDARDNAPRTIFIISMYADSQPRGMAVAISVKCEKISTLSAENKIISFKEMNPPDNIKDTKSDIIFFQRSVPGHDNKMQFESSSYEGYFLAAEKERDLFKLILKKEDELGDRSIMFTVQNESGGPGPAGMKGLPGSNIVPVLLGPKLNHVAVELGKNVRLNCSALLNEEDVIYWMFGEENGSDPNIHEEKEMRIMTPEGKWHASKVLRIENIGESNLNVLYNCTVASTGGTDTKSFILVRKADHHHHHH | 26 fold | 1.09 nM | – | – | – | ~1 pM
8 | C189 (C086-LinkerX-IL-18Rα D3 without glycosylation sites-His6; SEQ ID NO: 75) (ligand) YFGKLKSKLSIIRNLNDQVLFIDQGNRPLFEDMTDSDARDNAPRTIFIISMYADSQPRGMAVAISVKCEKISTLSAENKIISFKEMNPPDNIKDTKSDIIFFQRSVPGHDNKMQFESSSYEGYFLAAEKERDLFKLILKKEDELGDRSIMFTVQNESGGPGPAGMKGLPGSNIVPVLLGPKLNHVAVELGKNVRLDCSALLNEEDVIYWMFGEEDGSDPNIHEEKEMRIMTPEGKWHASKVLRIENIGESNLNVLYDCTVASTGGTDTKSFILVRKADHHHHHH | 10 fold | 0.43 nM | – | – | – | ~0.4 pM
9 | C191 (C086-PLGLAG linker-IL-18Rα D3-His6; SEQ ID NO: 76) (ligand) YFGKLKSKLSIIRNLNDQVLFIDQGNRPLFEDMTDSDARDNAPRTIFIISMYADSQPRGMAVAISVKCEKISTLSAENKIISFKEMNPPDNIKDTKSDIIFFQRSVPGHDNKMQFESSSYEGYFLAAEKERDLFKLILKKEDELGDRSIMFTVQNESGGPLGLAGGSNIVPVLLGPKLNHVAVELGKNVRLNCSALLNEEDVIYWMFGEENGSDPNIHEEKEMRIMTPEGKWHASKVLRIENIGESNLNVLYNCTVASTGGTDTKSFILVRKADHHHHHH | 48 fold | 2.02 nM | – | – | – | ~2 pM
10 | IL-18 polypeptide SEQ ID NO: 34 (E06K, K53A, S55A) (ligand) YFGKLKSKLSVIRNLNDQVLFIDQGNRPLFEDMTDSDCRDNAPRTIFIISMYADAQPRGMAVTISVKCEKISTLSCENKIISFKEMNPPDNIKDTKSDIIFFQRSVPGHDNKMQFESSSYEGYFLACEKERDLFKLILKKEDELGDRSIMFTVQNED | – | – | 0.824 nM | – | 272 pM | –
11 | C190 (Propeptide-C086, non-cleavable control; SEQ ID NO: 68) (ligand) MAAEPVEDNCINFVAMKFIDNTLYFIAEDDENLESDYFGKLKSKLSIIRNLNDQVLFIDQGNRPLFEDMTDSDARDNAPRTIFIISMYADSQPRGMAVAISVKCEKISTLSAENKIISFKEMNPPDNIKDTKSDIIFFQRSVPGHDNKMQFESSSYEGYFLAAEKERDLFKLILKKEDELGDRSIMFTVQNED | – | 404 nM | – | – | – | –
12 | C190 + MMP9 (ligand) MAAEPVEDNCINFVAMKFIDNTLYFIAEDDENLESDYFGKLKSKLSIIRNLNDQVLFIDQGNRPLFEDMTDSDARDNAPRTIFIISMYADSQPRGMAVAISVKCEKISTLSAENKIISFKEMNPPDNIKDTKSDIIFFQRSVPGHDNKMQFESSSYEGYFLAAEKERDLFKLILKKEDELGDRSIMFTVQNED | – | 198 nM | – | – | – | –
13 | C127 (Propeptide-LinkerX-C086; SEQ ID NO: 69) (ligand) MAAEPVEDNCINFVAMKFIDNTLYFIAEDDENLESDSGGPGPAGMKGLPGSYFGKLKSKLSIIRNLNDQVLFIDQGNRPLFEDMTDSDARDNAPRTIFIISMYADSQPRGMAVAISVKCEKISTLSAENKIISFKEMNPPDNIKDTKSDIIFFQRSVPGHDNKMQFESSSYEGYFLAAEKERDLFKLILKKEDELGDRSIMFTVQNED | 7000 fold | 295 nM | – | – | – | –
